In the supplement of paper PMC9732359:
± gives the uncertainty stated by the source.

Assay: protein stability index of a GFP-peptide fusion (yeast GPS) (PSI 1-4); higher = more stable; sorted into four equal gates, so the index is relative within each strain
In short: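 For each peptide, the protein stability index sums the read frequency in every gate after multiplying it by the gate number. Read frequencies came from plasmids that were PCR-amplified from each gate and Illumina-sequenced, with reads assigned to strains by barcodes. The gates were four equal bins of GFP/Cherry fluorescence ratio applied to mid-log yeast in leucine-free medium carrying a pooled library of tiled 17-residue yeast protein peptides fused downstream of GFP on a Cherry-expressing plasmid.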

Sequence | protein stability index (doa10∆) | protein stability index (pdr5∆) | protein stability index (san1∆) | protein stability index (ubr1∆)
IHPIPSVTVSQGNYVTE [YMR129W/POM152] | 2.21 ± 0.055 | 2.6 ± 0.066 | 2.58 ± 0.073 | 2.43 ± 0.043
YKVLKQTHPDTGISQKS [HTB1] | 2.42 ± 0.077 | 2.51 ± 0.074 | 2.21 ± 0.081 | 1.68 ± 0.04
VKAQRPITGASLDLIKE [RPL24A] | 2.42 ± 0.062 | 2.07 ± 0.049 | 2.69 ± 0.074 | 2.73 ± 0.05
KKRSQAKMNAKTDFAKI [RPC82] | 3.42 ± 0.094 | 3.23 ± 0.12 | 3.22 ± 0.076 | 3.37 ± 0.059
IFISSDHEFVLISLIMT [YMR129W/POM152] | 1.3 ± 0.13 | 1.24 ± 0.071 | 2.01 ± 0.16 | 1.61 ± 0.29
LQGIVIWDSQKFFIMIV [POP4] | 1.7 ± 0.059 | 1.91 ± 0.064 | 2.21 ± 0.076 | 2.3 ± 0.045
SNLSQNVVPYHRNTSDY [SWI1] | 2.65 ± 0.083 | 3.07 ± 0.086 | 2.82 ± 0.1 | 2.92 ± 0.058
SSRPNVNTTRRFQYSDD [YMR129W/POM152] | 2.93 ± 0.14 | 3.16 ± 0.11 | 2.4 ± 0.16 | 2.69 ± 0.088
VRVRTTKIPQIGDKFAS [RPB2] | 2.55 ± 0.068 | 2.68 ± 0.072 | 3.13 ± 0.064 | 2.66 ± 0.035
LDIEKEAPAGNIDTITD [MCD1] | 2.84 ± 0.081 | 3.03 ± 0.066 | 3.07 ± 0.086 | 3.08 ± 0.052
NECVCTPYNADFDGDEM [RPO31] | 3.06 ± 0.069 | 3.18 ± 0.069 | 3.06 ± 0.049 | 3.11 ± 0.09
RMRLRALETENMEIRNL [GRR1] | 3.09 ± 0.069 | 3.02 ± 0.051 | 2.78 ± 0.055 | 3.04 ± 0.041
TISSADFIQNVGRLWDQ [ECM29] | 2.98 ± 0.15 | 3.5 ± 0.14 | 3.39 ± 0.083 | 3.42 ± 0.061
SSLPPGEILLPDIADIP [SNF5] | 3.12 ± 0.074 | 3.25 ± 0.063 | 3.19 ± 0.076 | 3.25 ± 0.048
VEIVNYNVENQQYVAAG [FAS1] | 2.66 ± 0.17 | 2.67 ± 0.18 | – | –
WSWDIAVDNCAICRNHI [HRT1] | – | – | – | 2.04 ± 0.23
INVVIKASRKSVGLPSK [ECM29] | 1.27 ± 0.089 | 1.7 ± 0.074 | 1.95 ± 0.24 | 1.26 ± 0.13
RESTKALTRGEALLVVL [RPS12] | – | 3.49 ± 0.16 | – | 3.4 ± 0.045
IANFSRAGKYELVKSYS [YJR042W/NUP85] | 2.25 ± 0.094 | 2.09 ± 0.074 | 1.28 ± 0.13 | 1.45 ± 0.06
MDCTKEEEATMTTSAVS [YIL149C/MLP2] | 3.35 ± 0.08 | 3.24 ± 0.065 | 3.28 ± 0.06 | 3.12 ± 0.059
NKNQDAFEAELSNIPLL [ARP9] | 3.12 ± 0.098 | 3.23 ± 0.086 | 3.01 ± 0.084 | 3.31 ± 0.076
IPPLNKSLAMEHKSQVV [CSN12] | 1.26 ± 0.063 | 1.63 ± 0.078 | 1.49 ± 0.12 | 1.35 ± 0.071
FLLNQNKQLSQSVEEKV [YIL149C/MLP2] | 2.16 ± 0.084 | 1.84 ± 0.1 | 1.77 ± 0.14 | 2.09 ± 0.068
DCRMGNFYIQYDPKDGL [AAR2] | 2.77 ± 0.054 | 2.39 ± 0.058 | 2.31 ± 0.08 | 2.61 ± 0.037
PKATSSAGAVFKSSVEM [YOR098C/NUP1] | 2.89 ± 0.12 | 1.86 ± 0.11 | 2.69 ± 0.1 | 2.45 ± 0.047
NSGVGSAKGPEIIPLQD [MED6] | 3.35 ± 0.16 | 3.21 ± 0.088 | 3.16 ± 0.071 | 3.23 ± 0.064
INSGTNSANGSSLNGTN [SSN3] | 2.55 ± 0.056 | 2.75 ± 0.055 | 2.82 ± 0.05 | 2.7 ± 0.041

Sequence | protein stability index (doa10∆) | protein stability index (pdr5∆) | protein stability index (san1∆) | protein stability index (ubr1∆)
KEPVDDKDVKAKYETSI [FAS2] | 3.2 ± 0.086 | 3.21 ± 0.12 | 2.43 ± 0.12 | 2.83 ± 0.13
ISSHSHPVSLISFAIYS [RRP42] | 1.51 ± 0.052 | 1.62 ± 0.058 | 1.86 ± 0.075 | 1.54 ± 0.033
LGQIGACHVEVPYVLMG [COB] | 2.05 ± 0.083 | 2.01 ± 0.066 | 1.89 ± 0.12 | 1.95 ± 0.06
VGSEKVLQDLRLGSKKL [YJL039C/NUP192] | 3.34 ± 0.13 | – | 3.38 ± 0.13 | –
LNKLYGGAKSRGVRPYK [RPS19A] | 3.34 ± 0.14 | 3.3 ± 0.18 | 3.09 ± 0.061 | –
GSHLSETEFPPFREFLQ [ECM29] | 3.12 ± 0.063 | 3.11 ± 0.071 | 3.09 ± 0.041 | 2.87 ± 0.058
IDGSTSHEERIEAIDEY [ISW2] | 3.26 ± 0.079 | 3.26 ± 0.11 | 3.06 ± 0.091 | 3.32 ± 0.047
GVRDINCVNDVLEFCKD [POP1] | 2.93 ± 0.18 | 2.82 ± 0.18 | 2.36 ± 0.24 | 3.09 ± 0.26
NDKQGFPMKQGVLLPTR [RPS6A] | 2.75 ± 0.098 | 3.06 ± 0.14 | 2.79 ± 0.075 | 2.57 ± 0.12
GRILKWLWPLCRGELKA [CDC53] | 1.58 ± 0.095 | 1.64 ± 0.06 | 1.32 ± 0.11 | 1.13 ± 0.045
EIILDFLQDKVQIKDVN [CSI1] | 3.12 ± 0.086 | 2.83 ± 0.055 | 2.36 ± 0.076 | 3.17 ± 0.051
YWFPLAHFLSLSFTPTT [RPN2] | 1.65 ± 0.036 | 1.34 ± 0.033 | 1.19 ± 0.076 | 1.19 ± 0.028
IQEFQGNPYIELNQDRL [SNF5] | 3.13 ± 0.059 | 3.15 ± 0.07 | 3.24 ± 0.06 | 3.23 ± 0.04
KADTDTLLYEQIIQRDK [SNF5] | 3.23 ± 0.11 | 3.37 ± 0.11 | 3.21 ± 0.062 | 3.29 ± 0.064
SSSGNTWSLILNECLKT [YML031W/NDC1] | 1.85 ± 0.066 | 1.73 ± 0.084 | 1.48 ± 0.13 | 1.52 ± 0.061
VILQSDLEEAYATQVKT [RPT3] | 2.2 ± 0.1 | 2.57 ± 0.069 | 2.3 ± 0.083 | 2.53 ± 0.068
PLLEAKKLVWPLHLIFA [SSN2] | 1.61 ± 0.083 | 1.29 ± 0.059 | 1.24 ± 0.11 | 1.19 ± 0.06
ESDYEPNNETSVLSSKP [SIR3] | 2.99 ± 0.089 | 3.08 ± 0.11 | 3.02 ± 0.11 | 3.01 ± 0.07
RDLILKKGEYARFKSKD [SMC3] | 2.81 ± 0.17 | 2.72 ± 0.18 | 2.65 ± 0.21 | 2.77 ± 0.076
VMSSDDENAPVATNANA [PRE10] | 3.27 ± 0.18 | 3.42 ± 0.11 | 3.15 ± 0.13 | 2.5 ± 0.26
LKHKSICSCVNRGVKLE [RPP1] | 2.31 ± 0.068 | 2.75 ± 0.051 | 2.57 ± 0.068 | 2.68 ± 0.034
KSESPSEVLVDTLDSKS [ISW2] | 2.98 ± 0.067 | 3.11 ± 0.068 | 2.96 ± 0.075 | 3.24 ± 0.056
HDWLNALDGDLIELLEK [YCG1] | – | 3.32 ± 0.2 | 2.75 ± 0.24 | 3.55 ± 0.11
NVIKTGIRIISLTYKKI [RPN3] | 1.83 ± 0.1 | 2.25 ± 0.081 | 1.99 ± 0.12 | 2.2 ± 0.042
AQAFVELENSSPELKAE [RPS7A] | 3.08 ± 0.23 | – | – | –
QLLKEDSEKRNKYAAML [RRP45] | 3.13 ± 0.11 | 2.81 ± 0.089 | 2.75 ± 0.18 | 2.97 ± 0.05
MTDRYSFSLTTFSPSGK [PRE8] | – | 3.16 ± 0.25 | – | –
